# Data from the DeepSol protein solubility set.
# Test: soluble on expression in E. coli; label from the status in PepcDB or PDB records
row,Sequence,soluble on expression in E. coli
1,MSLKITDVRVIRFRTHADRWDIGHARLRPAAEVSQTVTCIDTDAGLTGWFFGGGKHGDQDGMSPDEQRLIEGRVRDLLLGVDPFDREAVWKWMWVANLPEVAQSVIDCALWDLAGRAAGQPVYKLMGAARDKVPAYASTYPNIGPPQVYAEHALACRAEGYKAYKIHPHYFWNPDTGLPTKGRPSNIRADIETINLVREAVGPDMVLMYDVWGTYHTIEETIKVGRELERNDFYWFEHPMPEYRVESYRRLCRELSIPILAPEIAAGGVFTRAEWILQGASDMSRMDIRRGGVTGCRKTAVVCEAFGQRCEIHMAGWGNLQVMGATSQDTSEWYEKGLLAPGVDYDAPHPYLERNCDPMDAEGHVALPTAPGLGYEPIWDYIDDNRVPSEGHHHHHH,soluble
2,MERELAHWVERLRERAEAEGLSFPPVAFQEVGPEEMAMLAAYGGFPRRYPHWRWGSAYLHYRETYRYGLARIYELVVNTVPVQAYLLRGNPLLAQKLVVAHVYAHADFFQNNLAFKPIPKDMLAEMAHHAAYVERAMERHGARSVEEFLDLALSLENLIDPHAPYIQRPAQKEEEAPKRLPVRPYLDPYVNPAPAFPKEAEEGASPEPLPPRPTRDILGFLARHAPLAPWQKGILEIVREESLYFAPQAATKILNEGWATYWHTRLLLPLLTPEEALEFAEMQANLLAPHGLNPYRLGYHLLMEVEERWDKGRFGPEYEALPLGERLRYERPTGEGRKKLFQVRTVYTDLNFLEEFLTPEFALRRGLFALEDLPRFAEAKKALLFRLTNLGYPIVELVDANYQNRGELLLAHAYEGVELDLRKTKAVLENLHRLWGRPVHLKTVVGGKETLLSAGA,soluble
3,MSLSEVLDLDGELNLLVWNIYKQNRANWSTQLTELSRDQQLLLLQEANMTPAFKEWIHQLGWDGTQARAFEAFGETAGVINLAKVMPTMACAYTQLEPWLRLPKSAIYARYRLSDGQELVVVNLHAVNFTYGTQEYQQQLIALLDELRDFTGPVIVAGDFNSWSEARMALLSTQLASVGLQEVRFSPDNRTTFINGLPLDHVFYRGLQLEKAEAPISDASDHNPLLVRFRLLNEGHHHHHH,soluble
4,MGLISAAVGAVGGGLADQWLEVIEAGDMGEGIVLAKGVAVRTDKRNTNKKGSSDVVSNGSIIHVNQNQFMMLVDGGKIVDYTAEPGYFKVENSASPSLFGGQFGDALKETFSRFKFGGTTPMKQEVFYVNLQEIKGIKFGTPNPLQYFDNFYNAELFLRTFGNYSIKITDPIKFFKEACPRDAENVHIDEINEQYLSEFLEALQAAISQMSMEGERISFIPSKGTVLSKHMSEILDDSWKELRGMEVLSVGIASISYDDESKELINMRNKGAMLGDPGVREGYVQGSIARGMEAAGSNQAGAGMAFMGMGMGMNAAGGFMGQASQTNMQQMQMNQAAQRAAQGAGQQQGAGAKAAGEWFCTECGHKNTGKFCAECGTPKPQGLEHHHHHH,soluble
5,MLNPNKWLDVKKMLPRLAQKQWYAKTRYGYARGGETVHFVQNVRRYYDILTWVTQPLEHHHHHH,not soluble
6,MAEREFDMTIEEVTIKVAPGLDYKVFGFNGQVPGPLIHVQEGDDVIVNVTNNTSLPHTIHWHGVHQKGTWRSDGVPGVTQQPIEAGDSYTYKFKADRIGTLWYHCHVNVNEHVGVRGMWGPLIVDPKQPLPIEKRVTKDVIMMMSTWESAVADKYGEGGTPMNVADYFSVNAKSFPLTQPLRVKKGDVVKIRFFGAGGGIHAMHSHGHDMLVTHKDGLPLDSPYYADTVLVSPGERYDVIIEADNPGRFIFHDHVDTHVTAGGKHPGGPITVIEYDGVPVDDWYVWKDKDYDPNFFYSESLKQGYGMFDHDGFKGEFEQRQRRPGRKLAAALEHHHHHH,soluble
7,MNRLHGQQVKIGYGDNTIINKLDVEIPDGKVTSIIGPNGCGKSTLLKALSRLLAVKEGEVFLDGENIHTQSTKEIAKKIAILPQSPEVADGLTVGELVSYGRFPHQKGFGRLTAEDKKEIDWAMEVTGTDTFRHRSINDLSGGQRQRVWIAMALAQRTDIIFLDEPTTYLDICHQLEILELVQKLNQEQGCTIVMVLHDINQAIRFSDHLIAMKEGDIIATGSTEDVLTQEILEKVFNIDVVLSKDPKTGKPLLVTYDLCRRAYS,not soluble
8,MLTWSTSATSSKPTLRGKIPNSKAAEEFLDSWDNAVFDGKSTGDPELDREASLWRDKFPHLRITGSRFESQKVTHPIPVDSLSFQKSIIQHSKSANAIREKLPKIDNFKKK,not soluble
9,MGSDKIHHHHHHMLNLDFAKRVIIETAKQEWVDSPASGVRRKLLEREEAERGRATSIVEYKPGASFSTHEHPLGEEILVLEGVFSDENGDYPAGTYIRNPPGSSHAPFSKDGCKLLVKLHQFQPTDTQVVRINTHEAEWLPGQGGLEVMPLHSHGTEHVALVKWPANEVFKPHRHLGGEEILVLSGEFCDEHGRYPEGTWMRSPHTSVHHPFVDRETIIWVKTGHLG,not soluble
10,MKLTLEEGTSLVGYVRNVIKQYLKGEEPDIQKYPDKFNNVFGVFVSLHTHPEHDLRGCIGIPEPTMSLIDAIKETSISAAVHDPRFQPLKHSELKNTIIEVSVLTPPEDVEVEDSMEYLEKLEVGRDGLIIEFGPYRGLLLPQVATEYNWDTKQFLSNLCLKAGLPTTAWIEYDVKIKSFQAQVFEELIPNGPVVEKSTYTGCLEHHHHHH,soluble
11,MGLMKFQLFIQPKLDVLQGNIVEYEILLRDDSAVPRFPLSELEAVLADEELYLAFSEWFSEAFLDVLKKYPNDRFAINIAPQQLFYIETLHWLDKLKSESHRITVEMTEDIFDVPGHKRHLNANDKNAFILNKIKVIHGLGYHIAIDDVSCGLNSLERVMSYLPYIIEIKFSLIHFKNIPLEDLLLFIKAWANFAQKNKLDFVVEGIETKETMTLLESHGVSIFQGYLVNKPFPV,soluble
12,MPPEIMRFKERLEEAMNGESSRAFAAKCGLSDGVIRNYLSGKTYPSLDRLAQIAYATGRPIEWFIQSQSMPMVEHKNNQENKNSQPDRSTLKTKLIAIVELLEDKELHSAIELFRKKGFEALMPEIFSSDDSIQADLQGISQQTLQTAKMLESLPTDTRKKILSKYGIYEQEGLVAPSQEPQDVKKAV,not soluble
13,MGSDKIHHHHHHMVTEIELKYSLLDSNEQTKPEKIKTTISQLLSEHDVTFVHQEKQLSNHYFDTADLTLRKNRIALRTRGTKCFDETKRFEQTIKTSGTIIAGLHQRPEYNVDIGDAKPIVSLFPDIIFQPNIDINLLQQQIVELFSTHFTRHTWLVSFEDAQIEIAFDCGEVACQNYVKKPRIYEIELEFVSGDSQALLGLTKLLFSQLALRPGQLTKAARGYALYHESLTLASHVENKPPNNSAIVEQIELSMINLPKKIPLHNALTHGIEFSLNQLQLCVDSYVEVPSFNMLSKVSEQLILLRQGFWLFDELLSPDEKALRTELSYFIRTIHWVENARYIQLLINKQSSYQKENLINQELITKLQLRQSRYPRELQVLELLHSERFNNLQVDLLSLLLKRNSDETLKIDNSSSLVEFATKHLTNSTKALSDELVKLQKPQDSTSIELYLTAHSLLIRALLTTSWFSCLFAEPESDIVKRFNMPLLDIKQGIIELQSLSLLLQQLKHLPKKENKLTQWLTNKSENLITALDQSRAKALTMKPYWP,not soluble
14,MRIPFPSIKYPLIAILRGLKPEETEGVVGALIETGFRAIEIPLNSPDPFRSIEIAARMAPADCLIGAGTVLSVEDVASLDAAGGKLMVSPNADAEVITAAREKGMVTMPGVLTPTEALVAAKAGATGLKFFPASIIGPSGINAIRTILPKELIIAAVGGVSDKNFSDYTSAGIRAFGLGTSLYKPGMTAAEVRERATVTLAAYDAAIGG,not soluble
15,AAASMDAVTAEKFSPASFLDKKETGVLHFVKYHGLGNDFILVDNRDSSEPKITQEQAAKLCDRNFGVGADGVIFAMPGVNGTDYAMRIFNSDGSEPEMCGNGVRCFARFIAELENLQGKHSFTIHTGAGLIVPEIQDDGQVKVDMGTPILKAQDVPTKLSGNKGEAVVEAELVVDGVSWNVTCVSMGNPHCITFGKKGGPNLKVDDLNLPEIGPKFEHHEMFPARTNTEFVEVLSRSHLKMRVWERGAGATLACGTGACALVVAAVLEGRADRKCTVDLPGGPLEIEWKQEDNHIYMTGPAEAVFYGSALLHHHHHH,soluble
16,MTKKDKKAKGPKMSTITTKSGESLKVFEDLHDFETYLKGETEDQEFDHVHCQLKYYPPFVLHDAHDDPEKIKETANSHSKKFVRHLHQHVEKHLLKDIKTAINKPELKFHDKKKQESFDRIVWNYGEETELNAKKFKVSVEVVCKHDGAMVDVDYKTEPLQPLI,soluble
